In article PMC6497955, “Development and structural characterization of an engineered multi-copper oxidase reporter of protein–protein interactions” (The Journal of Biological Chemistry, 2019):

Substrate: COc1cc(C=NN=Cc2cc(OC)c(O)c(OC)c2)cc(OC)c1O
Experiment: purified protein
Format: biochemical, Escherichia coli
Settings: 50 mM acetate pH 5.2, 0.33 mM copper, room temperature
[1] = CueO-12.1, graft PRFMDYWEGLN (from primers; residues 384–394 replaced)
[2] = CueO-PM2, graft TSFAEYWALLS (from primers), no MDM2
[3] = CueO-12.1CON, graft PRAMDYAEGAN (from primers)
[4] = CueO-HA, HA epitope graft TSYPYDVPDYA (from primers), no antibody

B1: CueO (Escherichia coli K-12; G386R/G389D/G391W/H387F/H390Y/H395N/M358I/M385P/M393G/N392E/N394L) (protein)
chain: AERPTLPIPDLLTTDARNRIQLTIGAGQSTFGGKTATTWGYNGNLLGPAVKLQRGKAVTVDIYNQLTEETTLHWHGLEVPGEVDGGPQGIIPPGGKRSVTLNVDQPAATCWFHPHQHGKTGRQVAMGLAGLVVIEDDEILKLMLPKQWGIDDVPVIVQDKKFSADGQIDYQLDVMTAAVGWFGDTLLTNGAIYPQHAAPRGWLRLRLLNGCNARSLNFATSDNRPLYVIASDGGLLPEPVKVSELPVLMGERFEVLVEVNDNKPFDLVTLPVSQMGMAIAPFDKPHPVMRIQPIAISASGALPDTLSSLPALPSLEGLTVRKLQLSMDPILDMMGMQMLMEKYGDQAMAGMDHSQMPRFMDYWEGLNMNHGGKFDFHHANKINGQAFDMNKPMFAAAKGQYERWVISGVGDMMLHPFHIHGTQFRILSENGKPPAAHRAGWKDTVKVEGNVSEVLVKFNHDAPKEHAYMAHCHLLEHEDTGMMLGFTV
notes: C-terminal His6 tag, pET22b, full-length gene cloned, expressed in E. coli BL21(DE3); crystal models start at residue 29/30; given PDB entries are of the CueO-12.1 and CueO-PM2 variants
[1]
  Km: 290.65 ± 44.33 µM
  kcat: 1.03 ± 0.0613 s⁻¹
  kcat/Km: 3500 M⁻¹ s⁻¹

B2: CueO (Escherichia coli K-12; G386S/G389E/G391W/H387F/H390Y/H395S/M358I/M385T/M388A/M393L/N392A/N394L) (protein)
chain: AERPTLPIPDLLTTDARNRIQLTIGAGQSTFGGKTATTWGYNGNLLGPAVKLQRGKAVTVDIYNQLTEETTLHWHGLEVPGEVDGGPQGIIPPGGKRSVTLNVDQPAATCWFHPHQHGKTGRQVAMGLAGLVVIEDDEILKLMLPKQWGIDDVPVIVQDKKFSADGQIDYQLDVMTAAVGWFGDTLLTNGAIYPQHAAPRGWLRLRLLNGCNARSLNFATSDNRPLYVIASDGGLLPEPVKVSELPVLMGERFEVLVEVNDNKPFDLVTLPVSQMGMAIAPFDKPHPVMRIQPIAISASGALPDTLSSLPALPSLEGLTVRKLQLSMDPILDMMGMQMLMEKYGDQAMAGMDHSQMTSFAEYWALLSMNHGGKFDFHHANKINGQAFDMNKPMFAAAKGQYERWVISGVGDMMLHPFHIHGTQFRILSENGKPPAAHRAGWKDTVKVEGNVSEVLVKFNHDAPKEHAYMAHCHLLEHEDTGMMLGFTV
notes: as for B1
[2]
  Km: 284.77 ± 25.50 µM
  kcat: 0.811 ± 0.0288 s⁻¹
  kcat/Km: 2830 M⁻¹ s⁻¹

B3: CueO (Escherichia coli K-12; G386R/G389D/G391A/H387A/H390Y/H395N/M358I/M385P/M393G/N392E/N394A) (protein)
chain: AERPTLPIPDLLTTDARNRIQLTIGAGQSTFGGKTATTWGYNGNLLGPAVKLQRGKAVTVDIYNQLTEETTLHWHGLEVPGEVDGGPQGIIPPGGKRSVTLNVDQPAATCWFHPHQHGKTGRQVAMGLAGLVVIEDDEILKLMLPKQWGIDDVPVIVQDKKFSADGQIDYQLDVMTAAVGWFGDTLLTNGAIYPQHAAPRGWLRLRLLNGCNARSLNFATSDNRPLYVIASDGGLLPEPVKVSELPVLMGERFEVLVEVNDNKPFDLVTLPVSQMGMAIAPFDKPHPVMRIQPIAISASGALPDTLSSLPALPSLEGLTVRKLQLSMDPILDMMGMQMLMEKYGDQAMAGMDHSQMPRAMDYAEGANMNHGGKFDFHHANKINGQAFDMNKPMFAAAKGQYERWVISGVGDMMLHPFHIHGTQFRILSENGKPPAAHRAGWKDTVKVEGNVSEVLVKFNHDAPKEHAYMAHCHLLEHEDTGMMLGFTV
notes: as for B1
[3]
  Km: 234.51 ± 41.99 µM
  kcat: 1.61 ± 0.238 s⁻¹
  kcat/Km: 6830 M⁻¹ s⁻¹

B4: CueO (Escherichia coli K-12; M358I) (protein)
chain: AERPTLPIPDLLTTDARNRIQLTIGAGQSTFGGKTATTWGYNGNLLGPAVKLQRGKAVTVDIYNQLTEETTLHWHGLEVPGEVDGGPQGIIPPGGKRSVTLNVDQPAATCWFHPHQHGKTGRQVAMGLAGLVVIEDDEILKLMLPKQWGIDDVPVIVQDKKFSADGQIDYQLDVMTAAVGWFGDTLLTNGAIYPQHAAPRGWLRLRLLNGCNARSLNFATSDNRPLYVIASDGGLLPEPVKVSELPVLMGERFEVLVEVNDNKPFDLVTLPVSQMGMAIAPFDKPHPVMRIQPIAISASGALPDTLSSLPALPSLEGLTVRKLQLSMDPILDMMGMQMLMEKYGDQAMAGMDHSQMMGHMGHGNMNHMNHGGKFDFHHANKINGQAFDMNKPMFAAAKGQYERWVISGVGDMMLHPFHIHGTQFRILSENGKPPAAHRAGWKDTVKVEGNVSEVLVKFNHDAPKEHAYMAHCHLLEHEDTGMMLGFTV
notes: as for B1
  Km: 256.09 ± 9.59 µM
  kcat: 2.24 ± 0.19 s⁻¹
  kcat/Km: 8830 M⁻¹ s⁻¹

B5: CueO (Escherichia coli K-12; G386S/G389Y/G391V/H387Y/H390D/H395A/M358I/M385T/M388P/M393D/N392P/N394Y) (protein)
chain: AERPTLPIPDLLTTDARNRIQLTIGAGQSTFGGKTATTWGYNGNLLGPAVKLQRGKAVTVDIYNQLTEETTLHWHGLEVPGEVDGGPQGIIPPGGKRSVTLNVDQPAATCWFHPHQHGKTGRQVAMGLAGLVVIEDDEILKLMLPKQWGIDDVPVIVQDKKFSADGQIDYQLDVMTAAVGWFGDTLLTNGAIYPQHAAPRGWLRLRLLNGCNARSLNFATSDNRPLYVIASDGGLLPEPVKVSELPVLMGERFEVLVEVNDNKPFDLVTLPVSQMGMAIAPFDKPHPVMRIQPIAISASGALPDTLSSLPALPSLEGLTVRKLQLSMDPILDMMGMQMLMEKYGDQAMAGMDHSQMTSYPYDVPDYAMNHGGKFDFHHANKINGQAFDMNKPMFAAAKGQYERWVISGVGDMMLHPFHIHGTQFRILSENGKPPAAHRAGWKDTVKVEGNVSEVLVKFNHDAPKEHAYMAHCHLLEHEDTGMMLGFTV
notes: as for B1
[4]
  Km: 286.06 ± 22.89 µM
  kcat: 1.49 ± 0.151 s⁻¹
  kcat/Km: 5170 M⁻¹ s⁻¹

B6: CueO (Escherichia coli K-12) (protein)
chain: AERPTLPIPDLLTTDARNRIQLTIGAGQSTFGGKTATTWGYNGNLLGPAVKLQRGKAVTVDIYNQLTEETTLHWHGLEVPGEVDGGPQGIIPPGGKRSVTLNVDQPAATCWFHPHQHGKTGRQVAMGLAGLVVIEDDEILKLMLPKQWGIDDVPVIVQDKKFSADGQIDYQLDVMTAAVGWFGDTLLTNGAIYPQHAAPRGWLRLRLLNGCNARSLNFATSDNRPLYVIASDGGLLPEPVKVSELPVLMGERFEVLVEVNDNKPFDLVTLPVSQMGMAIAPFDKPHPVMRIQPIAISASGALPDTLSSLPALPSLEGLTVRKLQLSMDPMLDMMGMQMLMEKYGDQAMAGMDHSQMMGHMGHGNMNHMNHGGKFDFHHANKINGQAFDMNKPMFAAAKGQYERWVISGVGDMMLHPFHIHGTQFRILSENGKPPAAHRAGWKDTVKVEGNVSEVLVKFNHDAPKEHAYMAHCHLLEHEDTGMMLGFTV
notes: as for B1
CueO-WT (358 reverted to Met)
  Km: 293.18 ± 23.08 µM
  kcat: 2.52 ± 0.136 s⁻¹
  kcat/Km: 8670 M⁻¹ s⁻¹
